In the DeepSol protein solubility set:

Experiment: soluble on expression in E. coli; label from the status in PepcDB or PDB records

Soluble on expression in E. coli, not soluble:
MGSDKIHHHHHHMDNKKPKIITIASIKGGVGKSTSAIIMATLLAKEHKVLLIDMDTQASTTSYFYKEILNQNIDIVKINVYRVLKEKIDINDSIVKIKENLDLIPSYLTLNKFLSESIPLKELRLQNNLEFLKRRYHYVIIDTNPSLDYTLSNALMTSNCIIVPMTAEKWAVESLELLEFHMNNLKIKIPIFLVITRFKKNNTHKQLLQHVESKTGFLGFIHEREDLNKKIAKNEEFDMTKDYINEYKGVLSRFLIVYDEYVK
MGSDKIHHHHHHMDSFHSFNQHAFNRHAKTYHLFAHIQQQIAICLVQFLKQKHYAKVLDLGSGSGAVFNALERQNILIEEFIALDNSINMLKLHPTHSINIQKISLEHADFEEHVFCTYDLVVSSSSLQWARDLKSVLEKIALSSKEVALAIHTDFSLHEVHEFLGTPSPLRDLKTLKSLIKNAFKHFQIELENKRFALYFNRKQDCLNYLKKCGLLGGSTLSFKQKKHFFQNMAFEKLSYEVLLFSGIKRS
MGSDKIHHHHHHMDTNKLIPLLSDMAIFVTVIEQGNFSKAAKKLGVTPSAVSRQISRLEDALGIKLLQRTTRQLALTESGKLTFDYCKQMVESADQAVNASRSATSTVSGLLRVSAPKSLANKVLRPLFVEFLKCYPDIQLHLKVTDRILDPIHDGVDFLIHINDYPIEALVNIKIGRVEQVLCASPEFLQSHTPPTHPDDLKYLSCICLGENMVDNRWRFINENQQTTVQVAGSYLLNHSDMRRDAIEQGFGIGPLPDYIAQQGIKTGKLIPLLEGWQLTGSYQGDICLQYVQSKYLPNKNRVFIDFMKQKLLIIQPDS
MGSDKIHHHHHHMDTPINAPLRKLPIGIQSFEKLRSENFLYVDKTALIYRLAQAGNPCFLSRPRRFGKSLLLSSFEAYFQGKKELFRGLAIEKLEKEWLQYPVLHLSLNAEKYDSREGLIDILERQLRQWEELYRTGGEGITHSGRFMTVIRRACEQTGRRVVVLIDEYDKPLLRSFDSQELQHDFRETLTAFYTVLKDADPWLQFVFITGVTKFAQMGIFSNLNQLNDISFDLDYNTLCGMTRAEIEATFSPELEALAVKSNATCRQVMDRLTRQYDGYRFTKDEEFTSMYNPFSVLSALQKRSYGNYWFASGTPTFLVEMLQKTDFDLREMEGIEVNEASLSDDRADINNPIPMIYQSGYLTIKDYDERFRMYTLGFPNEEVKYGFLNFVSPFYTPIAQTDTSFYIGKFIRELESGDVDAFLTRLRCFFAGIPYDLNDRTERHYQTVFYLVFQLMGQFTETEVRSARGRADAVVKTPDYIYVFEFKLNDSAEAALRQIDEKGYLLPYQADGRKVVKVGVAFEKEERNIGEWMIGG
MGSDKIHHHHHHMDVFSANQSAQGIVEEAQQANALDHPAAFEIPRSAVIDIKDSISGRTYPLFIKLPKSYRSQPNKRYPVIYLTDSWYSFQIVSGATRFPMNFNKMDEAIIVAISYSEGSRGSSSRNRDYTPSVNPAWKDITGGAAAHRDFIETTVFDYVERHYRAEAGSRIFVGNSFGGLFGTYVLMSKPEMFDSYILGSPSYWWDKGYIFELEKQFRKSAKPVSAKVFIGIGELEKKVNGVGEDMVKEAQAFYDLMQQWSSRPQTKLLIIPEADHQTAFPTTAIHGLQWILGKCPPKGNCLQGNLN
MGSDKIHHHHHHMDYLDIGQAADNKYYSSKRTLPLAIMKENAKEYQPLKINTIKTCSCKENNLNCLTAKEWIKRQIGVWEFYYEKRDIRDKTVHPATFPISLAKQVIELFSHEGELVVDPFVGSGTTLVAARDSNRNAVGFDLQEKYIKLCAERLSTQRIVGNAQQVAIEEDARNISNYFNEESISLIFTSPPYANLLNRERKNKSRRNRKNNQLGKVEQYSQDPRDLGTLDVESYTKEMGDIFEKVKPALRTKGHCVINVPDMWWENKRIAIHVYLINEMTKRGYELRNIIIWDKRNLVNQIGIFGWPSNYITMGVTFEYLLDFWKP
MGSDKIHHHHHHMEANSIDVNSILANKNLIIKFQPVVSVIKKSVIGLEAVCLGSSDDNGGIISTSKLFKTAEEQGVLIELDRLYREKAVKEFVKVYKRNKELLLFLDINISIIDKYVGSGIIMNLISDSGISTNNVVLQIIEGKMTNLEALKKFIYLYRSNGFLVALKDLGTGFANMDKISYVEPDIIKINSVLTKGIEVDYYRQEVFRSLVNLSKKIGALVVCEDIASEQETMMIMELGADMLEGSYFENDFDLGEKFLDASRKLIDATAVKYEKYTEEEVKAKEMIYSGYDFVINEALKELSSLTEDKFDDSINTVINKNSKLECVYVLNKEGIQVGSTATRFTDMVPQRALIFEPAQKGTNHSLKKYYYFLKTMSLNKYVTEPYISLATGNLCITISAVFKNLEGKEYILCVDFNPNYMSM
MGSDKIHHHHHHMEDIVEALKLAVTNLPEDVALALKNAYEREDYEIAKYNLEIMLRAVKTSKYYYVPLCQDTGTPIFFVETDGTWNVKEIYETIAEAVKRATDEIPLRPNAICLLSGKVVGNVPEIHIEPGKRNRISILIKGGGSENCSALFPLTPGDWFEGVKKKIIDHIRSCGGKPCPPIIVGIGIASPAERAITLAKKSLFRKIGERHEKLGWLEEEILEEINFLDIGPMGLGGKTTALDVKIEVGERHPASFIVGIAIQCWAHRRAFIEEKEDGEVVIWQ
MGSDKIHHHHHHMEDKQKVIFIEDDPNLGLIIVLALQSKGYEVCYANTLSGIQDMIEKDCPNILLLDLEVGNQNALDYLPFIRSKHPSLPVLIASSHNEGEEITRCYEAGANHYTKKPYDIQEIDFLIQRFCKKGSPISNSISIGDYQLELSTHKLFYKQEQSKTLSPKDFKLFYLLSEQLNQPVSREKLFHEIWDGQEVHDSLNNSISRLRKLLEKDTTLSIDAVKGVGYILSKKDQLSSS
MGSDKIHHHHHHMEDREQLYTLLAQKDWDAIGKIIYKNKKAKKQDPFLTQVTTFFEAEFFEFTRPLPPAERAKQFEHTNLIIELGQHGFSQAFVDNFVDERLKLMQETQHSALLNYAQTYQHRPLAQRIIASFINTKPEAVAASLRENMTIRATDVQPGKAKTIRLFKSKQEEHFYEAVRRVFPTYHPYPNVALSCVLDYQAIKDSLSEQAKSYFFKAIIDSVVFDVGSGYEPKYFIELDSNFHDAAQAQANDKMKDDIFRAANTKLIRIRPLNSKASSIEEFEKLVREVMRQL
MGSDKIHHHHHHMEFLIYSLPEEVLREEMLGNFSVALKLIDDFLKKDLPLLQRERLIYEKERIERLLEDYPFTEKEAMEKMREMFEGFSEGEFQYLMNEGVLDYIVVEGEKRFERRFFHNLAFVRSEYRERLRKDERSEKARRILHERLERLIKGEDPKRYRIRARITLKLKETSSKHRVWLPFPKESLQIESVKLLRTSHKSYYISPNDVPQRTIYFEGEDSTFFVEFEYIVREWVNHVDPERVSEKVAGFEEFLKEEPPHIVFTPKLRWLTQTVVGSEVNPYLKAKRIYDWITLNVRYSYVKPYALYENITDFVVNNLKGDCGFQALLFITMCRIAGVPARWQSGWYINPIFGSPHDWALFYVEPYGWLPADLSFGGARRDNESFRSFYFGNLDGFRMVANDGFMKDFDPKTRFVRSDPTDNQVGEAESEEKRLPFESTIEVISFEEV
MGSDKIHHHHHHMEGKKTTQEEYQKCVNAVVDYINLHLGEEIDLKSLARISHFSPFYFHRIMKAFLGEPIGTFIVRTRTEAAARLLRYSSTSISDIAYRIGYASPSSFSKIFKQMYGISPTEYRNNKNYVIMKPAIIKPDLELKKEIRELPQRNVIYIRLFGDYKLNDYAGTWMHLIQFVKEQNLPMGDPSPLCIYHDDPKVTPTDKLRTDVCMLLPSNARPKGNVGFKQLPAGRYATFLYKGSYDQLQAVYDTIYGKYLPEMECTLSDEPSAERYLNDPSCTPPEELLTEIYIPIR
MGSDKIHHHHHHMEIFEDVVRCGGFRAAALGRGVSSSAISQSISVLEEALGIRLLNRTTRSVAPTEAGEQLLERLRPALYEIRTAVDDLNQLRERPSGTVRINAPGPAADHVLCPLTFEFMKIYPDVNVEIVSDAAIIDIVEQGFDAGVRFGNQLAQDMIAMPLGPALRYAIVASPDYLRKRGRPHSPRDLLQHDCIRRRFPGGTMVTWKFARDGDEVEITPKGRLTLSSAHQELQAALAGSGIAHLFEDYVRDDVEQGRLVELLCDWKQKLPSWYLYYPSRRHTSAAMRAFLEYIRNQRQHPDRR
MGSDKIHHHHHHMEINVGAVISANRKQKGITQQALADFVGVSKASVSKWETGQSYPDITLLPILAAYFDVSIDKLMAYDAQLSSTEIRRIYTSMKQAFETQPGDAVLKSIRNLIRRYYACYPFLLQMGLLILNHYDLLPGTSQTAKVTEYVNEARLLFVRVRQNSQKAQLTAKAVELEGYSLLLLQRPDDVLALLGEYVPEQLPADSLIAGAFQQKGDFRRAIATSQSGLMQDLSIIMSQLTNYMTLLKDDPNRLAATYQRGQAIAKAFDLATLNPAVWLNFQLAALNGFAQQDKTDEAVALLQEFTHVLTATKMPLTLHGDAYFDAIEPWLEQLDLGSQSPRVSGQAKQVLADFVLQNPALAKIRTLPVVQPLLAELKQVSGHR
MGSDKIHHHHHHMELKSAEEKSLYYRNKIKEVIDEVGKVVVGQKYMINRLLIGICTGGHILLEGVPGLAKTLSVNTLAKTMDLDFHRIQFTPDLLPSDLIGTMIYNQHKGNFEVKKGPVFSNFILADEVNRSPAKVQSALLECMQEKQVTIGDTTYPLDNPFLVLATQNPVEQEGTYPLPEAQVDRFMMKIHLTYLDKESELEVMRRVSNMNFNYQVQKIVSKNDVLEIRNEINKVTISESLEKYIIELVFATRFPAEYGLEAEASYILYGASTRAAINLNRVAKAMAFFNNRDYVLPEDIKEVAYDILNHRIILNYEAEAEGISTRQIIETILRKVNITKA
MGSDKIHHHHHHMELLECVEHVIKTRRSHRLYLDKPVEREKLEKMIELAMWAPSAMNRQQWFFVVVAGKRLKEMIGIVEKGYEHILPRLQRFFAETPKVIEQTRRFFKSLGNAPAAVFAYYTPTGDDYSDVQSVSAAIQNMLLAAHAMGLGTCWMTGPVHVEEEINKALGVEGKKLVAVITVGYPAKQPPVPPRRDSEKKVVWMLD
MGSDKIHHHHHHMELNHLVTGKIALNQYVHRLEQKDVSFYVHYWGAMTNHYNTLLHKHSFYEICYVVRGEGYYLEGDRTYPLREQTIFLSKPEHLHQIKSETGLFLFYVAFELSEDQSSAEWIKVMEEVKQSPFITMQLKDGEPPGLLWKTLMLQAAQPVNAFDKEILSHLSHALILSLIQTFLPYAQRPKQKQPIHTSSALLTEVKLHIKDNLSQPLKLTDVASHFHISGRHLSRLFAAELGVSYSEFVQNEKINKAAELLKSTNLSIKEIAEEIGFSVHYFTRVFSAKIGSSPGLFRSLYKDSKMTAFQINKPFQKIEQAKPHE
MGSDKIHHHHHHMENQLLTLKNNELTVQINPKGAELTHVIENKNKFDFIWNGSEWPKHAPILFPAIGRSTDDEYLLNQKIYPMQQHGFASDYFFEIIDQKEDQISLSLKDNEETYQSYPFQFELKVTYQLVSKKLKIQFEIKNLSVKKLTFALGFHPAFNLSANFEDYQISFETKDKTLKQFEIVKNPFPYRSGKIIEINKAVSNFPLEREFFEKGLVIFDNKIEEVKLFSQETDYQMTMKMADFPYLCLWTKEDENLSYLCIEPFQGLPDILNQKQELLQKEGNISLKSNESKTYEVELTFNSNKGES
